Patent publication US20210238275A1 (published 2021)

B1: N026 (antibody)
heavy: not shown
light: QSALTQPASVSGSPGQSITISCTGTGSDVGSYNLVSWYQQHPGKAPKLMIYGDSERPSGVSNRFSGSKSGNTASLTISGLQAEDEADYYCSSYAGSGIYVFGTGTKVTVLGQPKAAPSVTLFPPSSEELQANKATLVCLISDFYPGAVTVAWKADSSPVKAGVETTTPSKQSNNKYAASSYLSLTPEQWKSHKSYSCQVTHEGSTVEKTVAPTECS
B2: N024 (antibody)
heavy: not shown
light: B1 light
B3: N027 (antibody)
heavy: not shown
light: B1 light
B4: N022 (antibody)
heavy: not shown
light: B1 light
B5: N023 (antibody)
heavy: not shown
light: B1 light

What follows are binders tested against cell surface, glycophosphatidylinositol (GPI)-linked human FcRn on HEK 293 cells (human, UniProt P55899 24-297, C-terminal engineered GPI linkage) (assay: IgG competition on 293 cell surface; pH 6.0).

Row | EC50 [nM] | Binder
1 | 3.24 | B1
2 | 2.48 | B2
3 | 3.25 | B3
4 | 2.93 | B4
5 | 2.48 | B5
